Experimental findings from the NTF2 design screens of Basanta et al. (2020) are described below.

This data set is described as follows: protease stability score; higher = more stable; yeast display proteolysis, trypsin and chymotrypsin.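 Also: relative to predicted unfolded state with 0 unfolded-like and 1 meaning tenfold more protease.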
Sequence “HELLEIIHRVAQMIYENLLTGNEDLFEHLADPNRRLLVNGVDLVGWERVVKWEKEMRIHDHRLRDESMTRQGDKAFVHHRTELRGDINGREIHTETKLNIVIRKIDGKWIVERIEVRID” returned a protease stability score of 0.81.
“DEEDNMMREIWKQLVDNQRTGDEDRLQDLIDPHVRIIINIDGRELRSHGRHELVRWLREMGVDYLDIKSYRLQGDKIETDGTLSIGDKTKEVEVRYNIIDGRTKEVEFHLR” displayed a protease stability score of 0.167.
With “SEDEEHAREFIKILFELLLTGDFKARLERLDPHTRLDVDGKDVHGMENINDLWLRIVEKYKNIQIHFHIHDVSIIGDKIHLHVHVEINVNGVNLRHEELTIVQKFNGKWIIKERHYI” the figure was 1.38; with “NEMDEHARHFAELFLRLMRTGDEETTEKLADPHVKVVIGDFEFHGWKMLSIFLREIRIHDIRLEDHRTQGNKSIIHGRTDGEINGQRYETELYIELHLVNGRLKSMRFEWR”, 0.698; with “DDEEEEAKEMSEHTLQWFFTGDEEKLYKYIDPDVRVRVLIDGRELVYHGREVFLEFLKRQIEELGIDHVHLRRRHVIDGVLEVHGTINVDGREIELIIFADKYNGRWRLKLIEINVR”, 1.69.
Sequence “SEKEEQAFRLFKDIVRSMKTGDEDRLHELFDPNVRMDFNGVESHGRELALEVIRIVWREIRIKNIEVHHIEVIGNYVRIDSRLDGRYDGRRIILEMHVQLVKVDGQWIVHNIEIK” returned a protease stability score of 2.12.
On to “SEEEENILIAYRLIMHSVNTGDESSLLELIDPDYRLDVNGVDIHGREEWYRDQKERFRDAGFKHTEFRFRDLRVQGDKVFLDVEITWHVDGKTIRHRVTMIVLKVNGRWLVESFKVK”, for which the protease stability score worked out at 1.48.
As to “SEEEHKIRKLLEDLANFIRTGDEHRINELLDPNVMIDINGQKFHGRESLETVYHEWLKRVDHIEDLRIDDISKQGEFLIMHANMTLRQGDKHHRENVHIIILKVDGRWIMTSILFR”, the protease stability score is 2.2.
Sequence “REEEELMKEIARRVIESHYTGDEDWWLELADPNVQVHVGDKRKVGREHALHLLHIFHKHLGVDHLHLRHVHVQGDWIEIEMDLNINGKIREMRVFVTVIDGRLDSINIDIK” came in with a protease stability score of 1.27.
The sequence “SEDDERWEKFMEELERAAHTGDWRFFKKMIDPEVRIDINGKEIIGMDEYIRHEKERLKRLGHTNVDIQIIIHRTERQGDKLDVDTEIRIHIGDKTITFRMTLILIKVNGVWLIKAMIIH” had a protease stability score of 1.56.
In the case of “DEFEKDFRFAIEEWLKVVRTGDEDRAHELMDPDVKLDIGDKRHHGREEMLHHVRRADVIHDYKIKDLKFQGNYITVQGEVDGQIGDKRIRTEVRVIILKIDGVWLWRQNYER”, the protease stability score worked out at 0.907.
In turn, “DDEDRKLKHLIELLVHWFLTGDEDALKELADPNTKFDIGDKHYHGMEIVQEIWKRHLEEIRIQHVEIRHVEIQGNKTDITGELHGQIGDKHIRSEVRIHLNIINGRVRSMWFIIH” returned a protease stability score of 2.49.
The sequence “SEEREKAERISRTLFFNFFTGDEDDWNKRADPTDRFIIGDKELVGMEEISKFLKHLRVHHEQLSDLRINLQGDKLHSHLDGYVDIEFNGRRRRTRVIIIIVVFKVNGRWTIEQFEVEFH” registered a protease stability score of 1.73.
The value for “DEDEEATRYALELMKKMHETGDEDSIKHLMDPHTKMDVNGVIFHGREAFHVWLNRFDVIRRFNIKHMKSVGDFLHIEGELDSEVNGKRIVTEVRIVSFKFNGRWHLSSTKIL” was 1.53.
With “SEDHEMVKKLIHDLMRARSTGDEEEFYKLLDPHVRSDINGQETHGREEFVHWFIRHHHEFGFDHVERVHLHHIELIGDKIHVDLIVHITVGEYTIVTHEHLVIWKIDGRWVLRSMDLH” the figure was 1.43.
“SEHEEMEQDAREIMERVFHTGDETTMRKLADPHVKFHIGDKLHVGRELFDNFVRYVLEKFKNIRVETEEVRDVNGVVIQDLDENYNGQRYKVRWVMVKINGKWTIERVEIR”: the protease stability score came to 0.599.
Take “SEDEEDVEQWVRIWFDLLLTGDEDSLRKLIDPHARVEVNGVIQIGREEVARFLSQMRVHDSTLRDIKIYDGRVEIDNEEDVEFNGQRKRVKVILISNKFDGRWTNEHEKYE”: the protease stability score was determined as 0.449.
On to “SEDEEALKKAIDLLFESLLTGDERELEKLADPNYRMEVNGKEIHGRELFSKTMIDILQRLGIDHIDFRIEHDETQGDKVIIEGKLIFKVGDKHIEIKSRLIVLKVDGQWILRHSRMH”, for which the protease stability score amounted to 2.05.
Sequence “DDRKKEAQRILELFLKIWETGDEEELLKLLDPNVKLHIGDKNIHGMEEATRILTENVREIRTHIVHKRVHIQGDKVELEGELRIHVNGREESNRVHYELIVVNGKVKAIHVHLE” returned a protease stability score of 1.16.
With “DEMRKYAHEYFKLLIELLLTGDEDSMLHNIDPNVRFDEHAENHRVHIHGMESLREWLDHFLKHAWITHIHESDSRVFNGRMHLIGHTRIYIDGKLEIKEIRIEFIVINGRITHYRVEVN”, the protease stability score amounted to 1.52.
With “DEETEKDKFLSEVFRHSLMTGDWESELKYADPHARTVVNGRTIHGMRESWEHLKELLERLGAKYIKIRDMDSHIQGDKVLININGELHVGDKTIETRIHLIVRKVNGQWHIEELRFDFK” the figure was 0.993; with “SDEYRRNHDLARDYVELFRTGNEEHLYELADPNTMLHIGEFQSHGREHVYEWLEKIHRHWGWENVEFRLESMQVQGDYATIHGLHKFNGRFIRMDHIIVVINGRMESIRVEIR”, 0.397; with “DEKEKVVRIAQEIINTIIHTGDERILEEFIDPNVRFYFNGQEFHGRELMSEIEKKHRDRFKNLRIFVEDTHVEVYGEWLRIKVHLRLEIGDKRHELHLDIIALKVNGRWLNKSAELRVE”, 1.64.
“EEDEHFAESYAEIMIHSWITGNEDLFEHLADPNWRLRVGDKEFHGREEATEFLIEFYERIDHFEIHIHDMKNIGEKLFIDGELNIHVNGRTIRHHTEIVIYTINGKVKSEEVRIK” gave a protease stability score of 1.95.
“SEEDELLREVFELWVEIVRTGDESRLKKLLDPHVRLIYNGRRYHGWEEVVRFYREWRIKSMSIHSIETQGDKAHANSETDIEYNGKRERSDIRIHMIVINGRIHHIEIREH” showed a protease stability score of 2.39.
With “SEDEEMNRLAIELLLRYMRTGDEHKLEELADPNVRIEVGDKESVGREVFLRFWMHLKKKLGIDVVEIELHEIKHYDGRVHSDTRFIMNVNGVEYRRDTEVVAHKVDGKWMLEHVHVE” the figure was 0.92.
With “DEEDKEAHEMVNDALQDFLTGDEDSLRNLVDPNARFEAENHHLIGMETVEWHIREFKNVTIEVKRVDVEVQGDKAILRMNIDIRVNGKTIDEHWEVHVRKFNGQWIITIVKVEFR” the figure was 2.17; with “DEEEKEFEFAEQVLKESLLTGDERTLKELMDPHVRLEQGDKLYIGRESFIKWWSKRREELGINHLHYRIKEVHIVNGRVRVNSHIEIIIGDKRHEEKVHFVLLKINGRWLMESVHME”, 1.46.
With “DETEEEVRKFVEESVKQNNTGNEDFAKRLADPNARFEQGDKELHGREEMRRVLVELWFEDYRIERLHVQGNKVEVEVVVHGVVNGKHQEVRVIIILLKINGRWVFRDVTVK” the figure was 0.648; with “SEFDEASREAHEWFVELSKTGDEHEVKKFFDPNMRIDWNGVELIGRDTASKFFHELRFEHVRMEDVKFIDGVLRLDSHSIVNVNGQRFETRDDIVIEKFNGQWILKSIRVE”, 1.
In the case of “SDVLESTKSFLRFFVHAMITGNEEELSRNLDPNVRLLFNGVNYHGMEELVRLLIELGIKIHEWHTHDLKFQGEKLYYLGRRDGEVNGRRSEEEVEFIIFKFNGRWFLHEMRIH”, the protease stability score is 0.627.
Turning to “SEIEEEAKHVSELMVRWMETGDEKEIYKFADPHVRLEYNGREFHGRESILKHRREIIEKWGVTNIRVSPETFDVINGVVHVELILKVNGRNVIVHILIRKIDGRWRIDSESFI”, the protease stability score came to 1.5.
“SELEEIAEEVARRFSHFIETGDEEKLWKYFDPHVKIDIDIDGRTKELHGMERFVFFIRYLGLDRVELRDHRIEIQGEKAILDGTTHINGRTRKTNFHIFVFNGRIKFMQVHII” registered a protease stability score of 1.48.
As for “DEIEEKIETHIKILLHASRTGDWELNSHNADPHTRIDIDGVELHGMEHFFTIMKEMRMKEYTLHHIEVQGEKIRIRGELRGEWDGKEEVVDVILIIVKIDGKWLIKEVRFR”, the protease stability score came out at 1.07.
As to “EEDKEDAKKAAEISSHSWETGDEDHLTKLFDPNVRITIGDKELHGMSLLHTFLREWGISNVDFRLHHIDVQGEKLKVDGILNVNGRHTKVTLHYEKINGKWVIKEIIII”, the protease stability score came to 1.26.
In turn, “DEDERLMQKAMEELWDIWHTGDEDRYNELADPHDRFEVGDKEIHGREETSHFLTEFRKRVKGIRILTDRFDHRRIGDKVVLRLETRIEIDGVRIKTRLIFIIRKFNGKWHIHSIIVIIE” returned a protease stability score of 0.673.
Consider “SEDEHRAREVVHIFNEAIDTGDFQSLMDMMDPNVRLIFENHHTIGREEALKVINRFDHVRNHHVRWRHVHHVNGRIIDHTEVDIVIHINGQIIRETTERDITIEKVNGRWLIHQIEIR”, for which the protease stability score was 1.14.
“SEEEKWTEIAFTLWREVVETGDEHDVQEMADPNARYKQGDKEYHGREHLLEFMVKFFRHARVDDDDHKHVRTINGRVELQMRSEVTINGKLLITDVELIIVKVNGRWVVESLILG” had a protease stability score of 1.43.
“SEQHEITEHIARIILEFLTTGDFTEFFKMLDPHVRITVGDKFNVGRHVFWHLWQELFDHIRIRHISLKHIHIVDGRLHLDTRVHGKVDGKETTLDQHIHIEIINGRITSVNLEYR” returned a protease stability score of 2.12.
The value for “SEEEETIRRVAEVLVHSILTGDEHFEENYLDPNARIDVNGKHFIGRERYLEAIRDLNEHLGWELKDVKLREVNVQGDKMHLKMEIKRHVNGKDLFIDMHVNVWKVNGKWLIRSLRYS” was 1.44.
In turn, “SEEEEIYHKLAEWSKRVLETGDWREWRKLADPNTRLHVHVNGRQLDHHGRELVLTIFLWLYKHLGVKHVDERDLDYYGNKIDIHVDDRYDGRTIHNRIILFIIDGKVTSTTVHIEHE” had a protease stability score of 1.38.
As to “DEEEELWKELSKLIIHEWRTGDEEIFARLFDPNAKMRHLVDGRDDQHVGREKTVHVLLKVLEDLGIKHIKHEHITIQGDWVHMHTTLNVDGREIKVEMHFVVINGKYKSVEERTK”, the protease stability score was found to be 0.966.
The value for “REEEKDIRDVLKLWKDISRTGDEHLIRRLVDPNARLNFNGREIHGREDVAEFLLRRWRQIDHLEIIDRDVRYQGDKVEFHGHVREKIGDKEETYELEFILVKIDGRWLVHSLHVH” was 2.43; that for “HEMKEESEKAVRLMVHLFKTGDEETIYRMADPNARFFFDGRHIHGMDHVFREVLRLEREYGVKHFELRDMELRIFDGRIFLHIDGVEEFNGRRLETHLHFESRKIDGRWHFQSESIVLR” was 0.317; that for “SEEKHMYKKLIEEWLKSVITGDEEHIQHLVDPDVRMTIIFENHELRAVGWEEVVRVLKEIRIKHFELRRWDDVNGRVHLDGQMTIQFNGQEHQTSTHIEIMFINGRVKEIRLIIT” was 0.986.
“DEDERERRWIYQLFLYLFITGDFHTLENLFDPHMRLHYGNKEYHGREEVSKTMLKIWRDLGVKYLSLRHFHIEIFNGRVSLHFYGEQDINGVHRDIEFRVDLVKINGKWVIEQIDLRIN” came in with a protease stability score of 1.62.
In the case of “DDLEQESHKVFEQYVRDWRTGDEHNVERLADPHVRVLYNGRHSHGWKEFLEHFSRDAQQADHTEFRIDDTDHQGDKMVLNETVILRYGDKEIQIEVELIYRKIDGRWYITEVRFR”, the protease stability score was 0.204.
